Results taken from the DeepSol protein solubility set.

Experiment: soluble on expression in E. coli; label from the status in PepcDB or PDB records
In the case of “MYLCEEHFKEYFERKVARTIEKYKLASKDERILVAVSGGKDSAVTAYVLKKLGYKIECLHLNLGIGEYSEKSEIYAKKQCEFIGAPLNIIRVKELLGYGIGEVRTSRPTCSYCGLTKRYIMNKFAYDNGFDAVATGHNLDDEASFLMNNLLHWNTEYLAKGGPLLPGEGKFVKKIKPLYELTEREVVAYAIAVGLEYIVEECPYARGATTLDMKEVLNELEEKRPGTKFNFVRGFLRKKKLFEPEVKGKDLKECKICGMPASGEICSFCKFWKLGKPLTFKIK”, the “soluble on expression in E. coli” value is reported as “not soluble”. For “MYLRKILELYRDSRFKYVVVDTPPTGLTLRILSLPRLYTFWLESLIGIRERIVSLRYVIARSIGREPEMDDPVLDKLREMQDRYAKLSNDLVERERTSFAIVATPEPLPVYEARKTVEFLESMGAKPSIIVVNRILPAEIASRLGVLEVQSKALNELRTRVCRKPCVLVEIPMVETVPSSLEAVLNLVERSR”, the “soluble on expression in E. coli” value was “not soluble”. For “MYLYIETLKQRLDAINQLRVDRALAAMGPAFQQVYSLLPTLLHYHHPLMPGYLDGNVPKGICLYTPDETQRHYLNELELYRGMSVQDPPKGELPITGVYTMGSTSSVGQSCSSDLDIWVCHQSWLDSEERQLLQRKCSLLESWAASLGVEVSFFLIDENRFRHNESGSLGGEDCGSTQHILLLDEFYRTAVRLAGKRILWNMVPCDEEEHYDDYVMTLYAQGVLTPNEWLDLGGLSSLSAEEYFGASLWQLYKSIDSPYKAVLKTLLLEAYSWEYPNPRLLAKDIKQRLHDGEIVSFGLDPYCMMLERVTEYLTAIEDFTRLDLVRRCFYLKVCEKLSRERACVGWRREVLSQLVKEWEWDDARLAMLDNRANWKIDQVREAHNELLDAMMQSYRNLIRFARRNNLSVSASPQDIGVLTRKLYAAFEALPGKVTLVNPQISPDLSEPNLTFIYVPPGRANRSGWYLYNRAPNIESIISHQPLEYNRYLNKLVAWAWFNGLLTSRTRLYIKGNGVVDLPKLQEMVADVSHHFPLRLPAPTPKALYSPCEIRHLAIIVNLEYDPTAAFRNQVVHFDFRKLDVFSFGENQNCLVGSVDLLYRNSWNEVRTLHFNGEQSMIEALKTILGKMHQDAAPPDSVEVFCYSQHLRGLIRTRVQQLVSECIELRLSSTRQETGRFKALRVSGQTWGLFFERLNVSVQKLENAIEFYGAISHNKLHGLSVQVETNHVKLPAVVDGFASEGIIQFFFEETQDENGFNIYILDESNRVEVYHHCEGSKEELVRDVSRFYSSSHDRFTYGSSFINFNLPQFYQIVKVDGREQVIPFRTKSIGN”, the “soluble on expression in E. coli” value was “not soluble”. For “MYPNISDCGVIGDTRTAALVNSNGSIDYCSLPYFDSPTVFAALLDERKGGYFSLKPAEAFSSRREYLPDTCILCTSFTTRNGKAALYDFMPHQDDKTRERTQGIHRCIRVDEGRVKFTLTLKLLTFQQTGAIVAAATTSLPESIGGKRNWDYRFTWIRNASFTLKAFFALSHTSEADTFIRWLHDTYRKNGSRGFSQKLNAFVQRFDTEILDASLLIMPLVDFLPVTDQRIQGTIEACQTHLMDNGFIRRYRADDGLEEDEGGFLLCNFWMIECLALSGKSAEAEKLLGITMAAANDLGLFSEEYDPYSREMLGNFPQAFSHIGYINAAATLIDSKLPLANPLEHHHHHH”, the “soluble on expression in E. coli” value was “not soluble”. For “MYPVDLHMHTVASTHAYSTLSDYIAQAKQKGIKLFAITDHGPDMEDAPHHWHFINMRIWPRVVDGVGILRGIEANIKNVDGEIDCSGKMFDSLDLIIAGFHEPVFAPHDKATNTQAMIATIASGNVHIISHPGNPKYEIDVKAVAEAAAKHQVALEINNSSFLHSRKGSEDNCREVAAAVRDAGGWVALGSDSHTAFTMGEFEECLKILDAVDFPPERILNVSPRRLLNFLESRGMAPIAEFADL”, the “soluble on expression in E. coli” value was “soluble”. With “MYQLTVFYDGTCPLCAKEMRALKQQDKNNVIKTIDIYSEVFSEYSNIDPKAANTVLHALNQKGELILGLDVTYLAWKLVGKGWLYAPLRWPGIKVIADWCYLHFAKNRYRVSYWLTGVSRCNKTSCSKLEHHHHHH” the “soluble on expression in E. coli” value was “not soluble”. For “MYTAIPQSGSPFPGSVQDPGLHVWRVEKLKPVPVAQENQGVFFSGDSYLVLHNGPEEVSHLHLWIGQQSSRDEQGACAVLAVQLDDYLGGRPVQHREVQGNESDLFMSYFPRGLKYQEGGVESGFKHVVPNEVVVQRLYQVKGAKNIRATERALNWDSFNTGDCFILDLGQNIFAWCGGKSNILERNKARDLALAIRDSERQGKAQVEIVTDGEEPAEMIQVLGPKPALKEGNPEEDLTADKANAQAAALYKVSDATGQMNLTKVADSSPFALELLISDDCFVLDNGLCGKIYIWKGRKANEKERQAALQVAEGFISRMQYAPNTQVEILPQGRESPIFKQFFKDWK”, the “soluble on expression in E. coli” value was “soluble”. In the case of “MYTAIVNLKTYREATGANFTRFMEKFEPVQGKFELIFSPSLLDLEKAAKCGKFRFFAQHVDAEPYGAYTGHVPMDMMIDLGITGSILNHSERRLPRDTIINTLKKASKLDFTIVLCVENAEEAKYFREYEPDFIAYEPRDLIGGDVSVSTAKPEIIEDIVKIYEGTGTSVLVGAGIKTGEDVRRSIGLGARGILVASGVVKSADPTKSLNSLIELK”, the “soluble on expression in E. coli” value is reported as “not soluble”. In the case of “MYVDPKVTIETVKTLNTYLKTRAELRSTDHVVIAEKLDDNDKKATTRLKILTKFDEGRFGAIYMVQNESAVDNDVVSVGNSRFIMKTALRQLSSHQIVYRLSREITVLKTLWGQGNDPPPRVPPILHQGKILGVPFYVTSIFDVNLEKCREQMGGGTFCVQSAFHIAQEIFMALKFMHRRQLVHRDVKPTNIALSYQNRDQWYLIDYGDAISVGKKTPISPPDGVTLPFLSLEAHDLLVTSSYSSFQQDLESWFYVIVDLLKPLPWKDNNRIDKVALAKRDFMSRLPNNLTNLPSQILDIGQILKTESPYSEISKKLVEGLASVKTSSSEKWNPEWYDRSATRNLREKKIKNQPRSRESAEAEATAVQTTPTGSTELQNDRRDKSVYVSTIVTKVVDNRKKVSSSNSPTTVSTNKTAVIEDEEDVKKNSPIQKQQDRSVYFNDFPVAAVAQPETGKKKKYRYKMRKQ”, the “soluble on expression in E. coli” value is reported as “not soluble”. With “MYVMTQSGWLELICGCMFSGKSEELIRRVRRAQFAKQEVKVFKPTIDNRYSEDAVVSHNGNSVIAIPVATPAEMFRYISAATDVVAIDEIQFFSDDIIDVVQTLADCGYRVIAAGLDQDFRGEPFGPVPALMAIAESVTKLQAVCTVCGSPASRTQRLINGAPASYDDPVILVGASEAYEPRCRHHHEVPGKPKKRYNHPLAGHTGE” the “soluble on expression in E. coli” value was “soluble”. In the case of “NAELAKSGIEVKNDVCEHFAYSRQELFHLIRIEEIKTFDELLEKYGKGYGCEVCKPLAGSILASCWGEHILKPQLVKLHDTNDNFLGNIQKDGTYSVIPRMAGGEVTPQALGALANVAAEYNLYTKVTGAQRIGLFGAQKDDLPEIWRKLIDAGFETGQAYAKALRMAKTCVGSTWCRYGVQDSVGLGSYIENRYKGIRTPHKMKFGVSGCTRECAEAQGKDLGIIATDAGWNMYVCGNGGMKPRHADLLASDLDKETLIKYIDRFMMFYIRTAAPLQRTSVWMENMEGGVDYLRAVIVEDKLGINAQLEADVAKLVDEYECEWTATINDASQLTRFAHFINSDKRDDNVVFVQEREQHRPATFTEKHPEAKGDILHVAITEA”, the “soluble on expression in E. coli” value is reported as “not soluble”. In the case of “NAVHFGAGNIGRGFIGKLLADAEVEVTFADVDVPLVDQLSHKQEYKVKVVGTECKIDTVTHVTAVNSASEDVIDRIVKTDLVTTAVGPNVLDIIAKTIAKGIAKRFEAGNDAPLNIIACENMVRGTTHLKGEVYKHLDKSLHAKADELVGFVDSAVDRIVPPAEAANDDPLEVTVESFSEWIVDEQQFKGDIPNIAGMEKTNN”, the “soluble on expression in E. coli” value is reported as “soluble”. In the case of “NDGTTVTPLCTSPVVQCGEGTLFGGDEPARTWFTAAQSSGLAASGNLPSYDPKFNRGVSGSFGTSYVGREGESVRKELSAKGYKVTMTSAPGDGIPKGSVVNVIAPVPLKPGGTIELFISDGTRPRTTPPSTTRRPNPTEEVVPGTGVSQNDLDDLAHQLQQLLPGF”, the “soluble on expression in E. coli” value is reported as “not soluble”. In the case of “NDLVSFTLRGNASWNRDKIIENDEAPKPYPWMEKRGTNVFSQWGLIADGLFTSEEEIEKHATQFGQVYIGDIKYRDLNNDKKIDSNDICRIGQGTIPKYNYGFGFDVQIGYFSVSALFQGAADVTTCLSGNSIIPFSSQAGIDNLFDNIEDRWSPDDPTNEDVFYPRLHYGNSNNSNNYRASTWWLRNMDYLRLKQFNIAYNLPENTLKSVGVKGARIYLMGTNLLTFSKFKLWDPEVYSSNGAAYPNVMSCSLGVNFSF”, the “soluble on expression in E. coli” value is reported as “not soluble”. For “NEDNSFTVRANMTYAVSKVVHWDQDAVRYPYQSYSDVNYGVMRGLVALGLFQNQDEINRSPKQTYGEVRPGDIRYKDVNADGKIDDDDIVPIAHSNVPQIQYGFALEYRYKRWTISALFTGAAKVNFLYGGSGFYPFSGGEVGNILSIVNDPKNRWTPAWYSGDPSTENPNARFPRLTYGENKNNNRASTFWLADGSYLRWKSLDISYRIGTNKVLRTVGISDMNLQFVGQNLAVWDSVKLWDPGQASKNGAVYPLQRTFSLQLTATF”, the “soluble on expression in E. coli” value was “not soluble”. In the case of “NGLVDSMIKNAIAWQTSHLQIHQSAYLVNPELKDTIPDSQSIVTTLDKHQSVKAVSERFLADGMIASARSSRGIRINGIHLEQEQKITPLSEHIIDGYWLDEEGRNPILVSQKTAKRLKLRVGSKVILTLSDINGDVSGAAFRVKGIFKTPSTTFDDGNVYVRKADLEKIAGIAGAHEIAILLNANDDDVLQNIVSFTRTLTDDGSGKPLTVRTWLEIQPLLSTMMSSMDISNQ”, the “soluble on expression in E. coli” value is reported as “not soluble”. In the case of “NGWVWKLGMNLTHYKNKVTELPLKDMPQSGVNKLQVGRSVYDFYMKEWAGVDPDNGNPLWYMDEKDANDNLTGKRVTTSDYASANYYYVNKSSLPKVYGGFNTSLSWKGFDLSAIFAYSIGGYIYNRDITMILHNGSLEGRDWSTEILKRWTPENRYTDVPALSTTSNNWNSASTRFLQNNSYMRLKNLTLSYDLPKQWISKLALSSVQVFVQGDNLFTIHRNQGLDPEQGITGITYYRYPAMRTISGGINLSF”, the “soluble on expression in E. coli” value is reported as “not soluble”. With “NIENSSLERIANILNSKLKGLTIEQINLEVINNIKKDLREYGHIFDCIMPNLYDILREADSTEVYKEGTMNIFNYPEFKDIEKAKEFLSVIDDRRILDTLFNASGGVTVNIGNENSIKEARDFSVVSSVYKYNGRPLGTIGIIGPTRIPYSKVIKVIMEVVDQINNNLDKMNNS” the “soluble on expression in E. coli” value was “not soluble”. For “NKDNLDLAGLTSLLSEKIKEFLQEKKMQSFYQQELETVESLQSLASRPVTHSTGSDQVELKDSGTSGVAQRVFKNALQLLQEKGLVFQRDSGSDKLYYVTTKDKDLQ”, the “soluble on expression in E. coli” value was “soluble”. For “NLLEEESAVLGQAVTNLMLSGDNVNNKNIILSLIHSLETTSDILKADVIRKTLEIVLRYTADDM”, the “soluble on expression in E. coli” value was “soluble”.
